This data set can be described thus: protease stability score; higher = more stable; yeast display proteolysis, trypsin and chymotrypsin.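 Further: log10 excess protease needed over predicted unfolded state with 0 meaning unfolded.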
On to “DQDEQRHQMEEVRKAFQRGDNEKFERLADPNVRYQVGDKTYHGREQASKALSDIREQVDHLEIKDYKIHGNKLDINVVVDINGEKHEYRIIVHIHNGRITRYQFQST”, for which the protease stability score was 0.73. Then “DQDHEQKMMTRVAHAFDNGDDQSLARLMDPNVSVTVGDKSVHGRERVRELVNEWRHRVDHIKLDRVEHQGNKAKFHITVEHNGERDQVDLEIEARNGKVKNVVLHRP”, with 1.26. “DQDHLRELVHTFNRLLEQGNFDELANMFDKNARVDVGDKSYHGQEQVRTWFKHLRQRVDHFHVKHYKVRGDEATIHVIMDVNGQKRNVTVRLSFSNGRADHIQIDPDHKQELDK” returned a protease stability score of 1.56.

With “DQDLHTRFKTWVENLHEGDEDNLKSLADPNAKIKVGNKEYHGMDEFKKDQKRRRDQMRIQIEIDSVTVQGNKATAEFEMTLDVNGKPVRMRFRVQFEVHNGTIQSWEAQVSPEQQEKLDR”, the protease stability score amounted to 0.967. As for “DQDQMRKAEQAMRAEQKNNKEELDELFDPNVEVEVGDFNVEGREEMNKEVDDLKKQARFHWSLHHVEVRGNRMHFKLRFEIQVNGQPRKNTANVEIEAHNGKFTSKTNRIDPRFVKTLLG”, the figure is 0.55; as for “DQDRLEEVRRRMTTGNPDDLRNLMDEDVTVQYGDKEVHGRDEAVDRLEKLLRQVDHLRIDSMDAHGDEFNVHLSAVVNGRQVNFVVSLRIHNGKIKHFMQQATDEDQQKRLEHAWD”, 1.23. “DQEAAEILKRFVKAIKTGDPDEAKEQMDKDVKVRVGDKVIHGREEVAKEVEQTNRNLRLEVEINDYTVDGDKVTIRMRIVTNENGRPDVKTVKVTAHAHNGRLVHLEIQSDS” returned a protease stability score of 0.778.

“DQEAAQDMRQWINAWNQNNPRKLRKLVDENARINIGEWHLQGRERIHKFAEKLIHEMDVQFSIKSFHVQGNKIKANLRIVANINGRPHEVNANLVVIVHNGHIKEIKATLDEDQIRHLNS” returned a protease stability score of 0.648. Then “DQEAHRVFNEFIKAITTGNPDRARQLADPNARFQVGDKRYHGMERYASTLKQQQNKMTQSLRVRDVDVKGDKIKVDAQSEMNHNGQPRRSQHNIDVNIQGDKIKRVRYTDDK”, with -0.454; and “DQEDKDSLEQILHTGDWVDAAKSADPNAQAEVGDKTWTGREQVEKVMKRLRDDIDHQEVKSVEIDGDKMHVDLTAHINGERMRITIEVKYSNGHLVKVVVKATDKEVEKHLKKLLD”, with 1.54.

For the sequence “DQEDLKHLANVLRTGDWDRLRDLFDENARVKIGDKEVHGKEDAKKLAEQLKRSIDHMKISTWSITNGVLEMHFRVNVNGKTYEVQMELHAHNGRIKSMELHYRNREVKHVIKEMLD”, the protease stability score is 1.08.

As for “DQEDLRRIAEQVNRAFEKNDHDLMRRLADKDVKFHVGEKELTGRDNLARFLQEFRRRADHITVKSFDASNGRVNADIEIDVNGQKIKLHMQAEVHNGHIKHVRFHYTDEQQLRDFLS”, the protease stability score was found to be 1.24. Then “DQEDQQRLAEQFMRALDEGDSDTIAKLLDPNARVIVGDKTVHGHRHARRVIHEFRNRVDRVDVRTVEVDNGHVRIEAVLNFNGQRTRFVYHLKIDNGRFKEMQLRSK”, with 0.892. Then “DQEEAEKVMKQWMEAVQKGDEDTVRKLYDPNVEWINADTKEQDVEQFRKAIKKAKDKGVEFQVRKAKVEGDRVQMHYDVRIGNETVTFTVEMDVQGGKVEWLRVKVDEKARKALTKG”, with 1.22; and “DQEEAERVVKRAIKALENGNSKELKDLGKEGVEYEFGDKKIHGPDALVKQFRTLQKKGVEMEFKEHHVEGDEAHTKVRYRNGDKENEATITATVKGGRIDRVQVNVPETIRKIVKHG”, with -0.076. Then “DQEEAKEVAEKVMKAVENGDEKKLKDLIDEGVKYEVGDTQQHGPEVAVKVVQYLQKKGVRLEFKEVQHHGNQVHTKIEYQNGDETDTVEATAEVKGGKIDQVQIHASETVVKWIKHG”, with 0.088; and “DQEEAKKIVDKMLKAVENGNEEDLVKMGADGVEYRAGDKKAHGPEAIQEVVQYLKRKGVEVEVKEVQVKGDKAQTHVDYKVGNETMTATANATLKGGKIDRVEIDFDETLKKVIKDG”, with 0.154. As to “DQEEAKKVAEQAIKYVENGNLTELMDMLKDGGEYQVADDKKHGKEVLYKLVKILQRLGVEVEFKRTEIEGNTVTTDVDYRLGDEEATAQAHAEVQGGRIDRVQIDADEHLKKWIKHG”, the protease stability score is 0.606. As for “DQEENQKIAERIVKIIQTGDNEKAMKQVDKNVRIRVGEKEYHGRESAREHIREQKEQFDHATVDDMKVQGNKIVLKMRLDVNGVDMDVVIKVTVKNGTIKELHVEYRDREDQQKIES”, the figure is 1.09; as for “DQEEVEQAKKFVEAQKSGDPDQLNDLADPNVELEIGDQELHGREDLHDWANHQNKHMRMEVRDVKAQDKPNHVEVHIRFVINVNGKPRDTTVEVDFSAENGHIKKIKFQIDHHELRKLEK”, -0.154; as for “DQEEVRRVVEKVAKAVQNGDATRLRDMGKDGVKYRRVEEETHGPEAVEKVLKYLRKQGVKLQVKHVEVEGNTAQTEVDYRRGDETLTVHAKAKVQGGRIDEVQVDLDEKAKKYVDHG”, 0.138. “DQEHVKRRADTAMKAIQNGDPDEAVKQMDPDAKMRVGDHEITGREDVRRYVETLHRRVDHNHILSLTHHGETVVFNAVVKVNGRNVTVNWVLKFHNGRLKQVDINPDEEKRFQS” showed a protease stability score of 0.079.

With “DQEHYEKIAKHMSDVLRTGNPDDMLRMIDPNARLEVGDKRWNGRHKIKKFLETFVKSADHVKVRHVEVSGNDITLDVVAHVNGRSVKFNVHANVHNGRIKEVKFDPRAWRDLQT”, the protease stability score worked out at 0.505.

In the case of “DQEKFERMAHKANRALEQNDEETFDELADENARMIYGDKRYTGRERVREAVQEIDKRVDHVQVDRVNVHGERAQINAVFHFNGKTQRDNVNMRFSNGKLQEMRFDPDVIRNLEE”, the protease stability score is -0.131. As for “DQEKKATRFARKLIHDIRTNDEEHLVDLADPNVKVQYGDKSYHGREQFKKWWKDLMDQADHVDVKVRDLKVDGNKFVLVYSYVMNHNGQKREVEMNVSAKDKNGRINIQSIQMG”, the figure is 0.301; as for “DQEKLETLARQVFDAFREGDEETFRRLADPNVTAVYGDQKYRGRERVAKWLKDLANQIDHLQLNDVTIQGEKMHFDATVRINGKNRKLVMIVEAENGTLKRVVLSHG”, 0.166; as for “DQEKLQSYVKQYETNDESKLKKNMDENARVDIGDRRITGMEKAADILRHFMEQADHVKLDRMEVQGNHATVDVTAVVNGQKLDYKFVIHVHNGKVKRVEWRVTSEENQKTYDKIVG”, 0.537.

For the sequence “DQEKNNHDAKKWVKNLRTGNEDELQRLFDEDARFNYGDKTVTGREQLQEWAHRMQRRIDSVDVRSVSQHGDKMNIDVVVRVDGRDRRFIFRAEIHNGRIKNAWMEDT”, the protease stability score was 0.497. As for “DQELRDQVERLLHLEKHGDNDEVLRQFDPNAKAQVGDTRYHGMTTAVRDMVRQQNEARFSFEIHHVSVSGDRVVIDAVYVKDHNGKPSTRRVHIQMHFRNGKVQERRQNDDG”, the figure is 0.782.

Take “DQENLDVLRRLWEALESGNPDKYSQLIDPNAEVVVGDKTYEGKENLKQEIRTERDEMRKEIDWKSMSVHNGQANAEAKIRSNHNGDPREMVVTARARFHNGKLQNYEQHVDK”: the protease stability score is -0.325. Then “DQENLELMNRLLEAISSNDESKFRRLVDPNVRVVIGDEQYHGRETLQKLLRDHNEHSRNDEHIHRVELHNGRVNMDVTREVDHNGRPQTDKFEIVATANNGKAVRMRFERTS”, with -0.164; and “DQEQAEETQKKWQEVVEKGDEKKAKKIYDPNGQWQDADETHQGYEIVIKMMRRAQKKGIEFQVRRAEVEGDRLQVDYDMRLGDKTVTFTVQMEVQGGHVKVVRVEVTEEAKKLLKEG”, with 1.11. As for “DQEREMQEWYEKLVRNYENNDRDRLNELLDPNAQFNVGDQTFHGRENAKKWLKTMVDKVDSVEFDLRRLHVHGNKVVFHANVRYRVNGTDTTVDVVIVARVDNGRLRVEKVEYG”, the figure is 1.28. Then “DQERNEQAKKLLDIINTGDEHKVKDMFDPNASIKVGDHTLHGREEIAKHYRREKDESRYQVDRVDFKAHGEKVRVSVKYTFRHNGKPLTATVEYNFRMHNGRIKDLSVRFDEQRQRDRDS”, with 0.117.

On to “DQEVAETMMERWQKAVQKGDPKEVQEVYDPNVTWKDVDEEHQGKEQVVKQMRKVQKQGIEFQIRRAEVEGDRAQAVYDVKLGNLTVTFTVEMTVRGGRVQEVRVEMDEEAKKLVKKG”, for which the protease stability score was 0.136. “DQEVREYIKRVYSTGDPDELNKLIDKDVRMRVGDKEVEGRETVQTIMRDWMTRVDDIKVHSYDVRGNKANYDAQYVFDGRSARFVIHIEFHNGRVKHVVVEATNEEVKQLLRDMLS”: the protease stability score was 1.33. Then “DQHAKRLFDEVVSAIKDGDPHQVKKQLDKNVRARVGDKTISGRETFAQQRKTERDEIEWDVEDYKADVNGDHIKVDMKVKSEHNGRPTSDKIDVDVQWHNGHVVRMEFKETR”, with -0.392; and “DQHDAERMNRVFEQNNEEELHQLMDPNVEVTVGNKRVKGRERAKKLFKRLVTNIDHVSYRSVNDDGDKLELKFVAVINGQTYHLKIEVTLHNGKVKSIHLDARDEKLKHLLDEWLH”, with 1.39.

Turning to “DQHEQQKLAENVQKVLRKGDESRFQRLVDPNAKMTYGDKSLTGHERFRKWMQEFRHHADHVEFKEVSIHNGKLNMHAVIDVNGHKQTFVMHFQFHNGTVQHVEQTQT”, the protease stability score was 0.289. Then “DQHLEDVARQMQEVEKHNDPEEVSKQFDPNAHARYGDKEVHGHHQFKEQAKRRQTKAQFKVDKYSVSVDNGRVSMSRQYVNDHNGKPRTQTDTAHMEVHDGRITDVKYQSTS”, with -0.139; and “DQHVEDVARKFINAMQTGDPDRLKELFDPNARQQVGDTVVTGREHAAKKWKEWVDEMEVHVQLRSIDVRGDKATLRFKLEVRVNGKPSQQDVTMVIHMHNGRAVDVKLSIDERDKKEIDS”, with 1.42; and “DQKDAKRATEILKNLQEGDWSEVVRQADPNAEIKVGDKVYNGMEHYAEHMHRKVEHSRIRIEVETVKDHNGVIHIKFHIEYKVNGHPRSNTQNINFYLNNGKVRSIDVQVPEEDLEKEHK”, with 0.252. Then “DQKKLKEQIKELWDALRTGDPQRAADLADPNARIQVGDKEITGREKFREHVKENKERIDRFTINDFKVQGDKARVDFHYEVNGQHRRVDATIVMRNGHIVSAQFDSQ”, with 0.717; and “DQKKQQEVLEQWSKNDPRDLRKQADKDVRVQIGDTTYHGREDAQDALYTLAKRVDHFKYQHIETEGDHIRVDLVVNVNGREYQLTFEAQFHNGRLKTLEMQVRDEDQHKRLQEQLD”, with -0.22; and “DQKVNEFFKHVVKVEENGDTDKYRDNFDKDARAVYGDKRVTGNDELADTMRRTRHDMKYDVRSMDVQVRNGRVTVDVKVDVRVDGKPHSLKETIEMEVDNGKVKEVRVDFDPDQRRKVER”, with -0.188. Then “DQNDRAEEFFKHWQRILTKNDPDEARKQMDKDVNVVYGDKRYHGREEVVKYLRDNMDRVDSIRVKLDDFKVDNGKATFHARFRQTHNGKDEQHNVVIVAQFKNGKLRAQSYHES”, with 1.01; and “DQQDVDRFTEFLEAVERGDEDRLRELMDKDAKQKVGDKTIEGSEKQVNELNDRARRMRIVLEVHDVKVHNGRLEARADLLVNVNGQPVRDDVVVRVQVHNGKITHVEMHFPEEFKRQMRR”, with 0.858.

Source of the values: the NTF2 design screens of Basanta et al. (2020).
